Substrate in data set [1]: CC1CS(=O)(=O)CCN1/N=C/c1ccc([N+](=O)[O-])o1
In words: purified protein. The data set is classed as biochemical, Trypanosoma cruzi. Particulars: 100 μM NADH fixed.

Substrate in data set [2]: O=C(Cn1ccnc1[N+](=O)[O-])NCc1ccccc1
In words: purified protein. The data set is classed as biochemical, Trypanosoma cruzi. Particulars: 100 μM NADH fixed; benznidazole 10–100 μM.

B1: TcNTR (61S, catalytic domain) (Trypanosoma cruzi strain CL Brener) (protein)
chain: LDAMKRVVHERRSCKRFDPTKSIDLDVVSDLLAMTVRAPTALNLQPWVAVVIHEEEQRETLSRAALGQPQPRDAPVTVVFAGDMEPESNAPAALEMGLESGYYHSLYGAAYLRHAYYLLHGGPCEVMSHVKAIVSAWYSESTGNAMLSVPRNKQAYAWKQVMIPATTFLYLATAAGFDTAILEGFDEAQVRRVAGLPPRFTVPVIISVGHGAKNGFHSVRSPRFPTKHLVRWGKF
Broadly, the Km is the concentration of substrate that gives half-maximal velocity. For the protein B1, the Km in “purified protein [1]” turned out to be 15.5 ± 3.5 µM; in “purified protein [2]” it was 28.0 ± 2.7 µM.
